These results are taken from the Human Domainome abundance scans (Beltran et al. 2025).

± gives the uncertainty stated by the source.

This data set can be described thus: abundance fitness (aPCA) (normalised: wild type 0, dead -1); higher = more abundant; growth selection in yeast, the domain comes from the species named. The settings on record: Homo sapiens.
As to “Lipoamide acyltransferase component of branched-chain alpha-keto acid dehydrogenase complex, mitochondrial E210S, P11182”, the abundance fitness is -0.019 ± 0.042.

“Lipoamide acyltransferase component of branched-chain alpha-keto acid dehydrogenase complex, mitochondrial E210T, P11182” registered an abundance fitness of -0.041 ± 0.056.

Turning to “Lipoamide acyltransferase component of branched-chain alpha-keto acid dehydrogenase complex, mitochondrial G193A, P11182”, the abundance fitness was -0.199 ± 0.039.

Substance “Lipoamide acyltransferase component of branched-chain alpha-keto acid dehydrogenase complex, mitochondrial G193C, P11182” returned an abundance fitness of -0.647 ± 0.059.

Regarding “Lipoamide acyltransferase component of branched-chain alpha-keto acid dehydrogenase complex, mitochondrial G193D, P11182”, the abundance fitness was -0.773 ± 0.088.

As for “Lipoamide acyltransferase component of branched-chain alpha-keto acid dehydrogenase complex, mitochondrial G193E, P11182”, the abundance fitness was -0.706 ± 0.067.

Turning to “Lipoamide acyltransferase component of branched-chain alpha-keto acid dehydrogenase complex, mitochondrial G193H, P11182”, the abundance fitness was -0.908 ± 0.2.

Regarding “Lipoamide acyltransferase component of branched-chain alpha-keto acid dehydrogenase complex, mitochondrial G193I, P11182”, the abundance fitness is -0.951 ± 0.12.

In turn, “Lipoamide acyltransferase component of branched-chain alpha-keto acid dehydrogenase complex, mitochondrial G193K, P11182” had an abundance fitness of -0.732 ± 0.057.

With “Lipoamide acyltransferase component of branched-chain alpha-keto acid dehydrogenase complex, mitochondrial G193L, P11182”, the abundance fitness was -0.863 ± 0.061.

“Lipoamide acyltransferase component of branched-chain alpha-keto acid dehydrogenase complex, mitochondrial G193M, P11182”: the abundance fitness was -0.694 ± 0.073.

Consider “Lipoamide acyltransferase component of branched-chain alpha-keto acid dehydrogenase complex, mitochondrial G193P, P11182”, for which the abundance fitness is -0.08 ± 0.051.

On to “Lipoamide acyltransferase component of branched-chain alpha-keto acid dehydrogenase complex, mitochondrial G193Q, P11182”, for which the abundance fitness is -0.573 ± 0.061.

In turn, “Lipoamide acyltransferase component of branched-chain alpha-keto acid dehydrogenase complex, mitochondrial G193R, P11182” had an abundance fitness of -0.692 ± 0.04.

With “Lipoamide acyltransferase component of branched-chain alpha-keto acid dehydrogenase complex, mitochondrial G193S, P11182”, the abundance fitness was -0.308 ± 0.056.

In turn, “Lipoamide acyltransferase component of branched-chain alpha-keto acid dehydrogenase complex, mitochondrial G193T, P11182” registered an abundance fitness of -0.476 ± 0.047.

“Lipoamide acyltransferase component of branched-chain alpha-keto acid dehydrogenase complex, mitochondrial G193V, P11182”: the abundance fitness was -0.814 ± 0.05.

As for “Lipoamide acyltransferase component of branched-chain alpha-keto acid dehydrogenase complex, mitochondrial G193W, P11182”, the abundance fitness was -1.06 ± 0.18.

“Lipoamide acyltransferase component of branched-chain alpha-keto acid dehydrogenase complex, mitochondrial G193Y, P11182” yielded an abundance fitness of -1.02 ± 0.26.

Turning to “Lipoamide acyltransferase component of branched-chain alpha-keto acid dehydrogenase complex, mitochondrial G195A, P11182”, the abundance fitness was -0.464 ± 0.044.

Turning to “Lipoamide acyltransferase component of branched-chain alpha-keto acid dehydrogenase complex, mitochondrial G195D, P11182”, the abundance fitness was -0.516 ± 0.12.

As to “Lipoamide acyltransferase component of branched-chain alpha-keto acid dehydrogenase complex, mitochondrial G195E, P11182”, the abundance fitness is -0.639 ± 0.073.

As for “Lipoamide acyltransferase component of branched-chain alpha-keto acid dehydrogenase complex, mitochondrial G195H, P11182”, the abundance fitness was -0.7 ± 0.1.

“Lipoamide acyltransferase component of branched-chain alpha-keto acid dehydrogenase complex, mitochondrial G195I, P11182” came in with an abundance fitness of -0.867 ± 0.15.

On to “Lipoamide acyltransferase component of branched-chain alpha-keto acid dehydrogenase complex, mitochondrial G195K, P11182”, for which the abundance fitness was -0.566 ± 0.13.

Regarding “Lipoamide acyltransferase component of branched-chain alpha-keto acid dehydrogenase complex, mitochondrial G195L, P11182”, the abundance fitness was -0.927 ± 0.055.

Regarding “Lipoamide acyltransferase component of branched-chain alpha-keto acid dehydrogenase complex, mitochondrial G195M, P11182”, the abundance fitness was -0.793 ± 0.16.

With “Lipoamide acyltransferase component of branched-chain alpha-keto acid dehydrogenase complex, mitochondrial G195N, P11182”, the abundance fitness was -0.611 ± 0.12.

With “Lipoamide acyltransferase component of branched-chain alpha-keto acid dehydrogenase complex, mitochondrial G195P, P11182”, the abundance fitness is -0.682 ± 0.07.

“Lipoamide acyltransferase component of branched-chain alpha-keto acid dehydrogenase complex, mitochondrial G195Q, P11182” displayed an abundance fitness of -0.483 ± 0.067.

In the case of “Lipoamide acyltransferase component of branched-chain alpha-keto acid dehydrogenase complex, mitochondrial G195R, P11182”, the abundance fitness was -0.591 ± 0.042.

“Lipoamide acyltransferase component of branched-chain alpha-keto acid dehydrogenase complex, mitochondrial G195S, P11182” returned an abundance fitness of -0.444 ± 0.08.

“Lipoamide acyltransferase component of branched-chain alpha-keto acid dehydrogenase complex, mitochondrial G195T, P11182” came in with an abundance fitness of -0.587 ± 0.066.
